Patent US20090022782A1, “Blood Retainable Device Exhibiting Selective Degradability in Tumor Tissue” (NATIONAL UNIVERSITY CORP. HOKKAIDO UNIVERSITY, priority 2005, published 2009)
Ends that are not written are not given here. * marks the point of attachment. DOPE = dioleoylphosphatidylethanolamine, CCCCCCCC/C=C\CCCCCCCC(=O)OC[C@H](COP(=O)(O)OCCN*)OC(=O)CCCCCCC/C=C\CCCCCCCC; MeO‑PEG succinate = methoxy poly(ethylene glycol) succinate

Columns and labels:
[1] = target: T1, MMP-2 (Homo sapiens, UniProt P08253); experiment: Decomposition of the peptide by MMP-2, reverse phase HPLC; type: biochemical; details: 0.5 mM peptide, MMP2 53 nM, 230 nM and 450 nM, 37° C., 2 hours
T1 construct: purchased Sigma
T1 sequence (P08253 110-660): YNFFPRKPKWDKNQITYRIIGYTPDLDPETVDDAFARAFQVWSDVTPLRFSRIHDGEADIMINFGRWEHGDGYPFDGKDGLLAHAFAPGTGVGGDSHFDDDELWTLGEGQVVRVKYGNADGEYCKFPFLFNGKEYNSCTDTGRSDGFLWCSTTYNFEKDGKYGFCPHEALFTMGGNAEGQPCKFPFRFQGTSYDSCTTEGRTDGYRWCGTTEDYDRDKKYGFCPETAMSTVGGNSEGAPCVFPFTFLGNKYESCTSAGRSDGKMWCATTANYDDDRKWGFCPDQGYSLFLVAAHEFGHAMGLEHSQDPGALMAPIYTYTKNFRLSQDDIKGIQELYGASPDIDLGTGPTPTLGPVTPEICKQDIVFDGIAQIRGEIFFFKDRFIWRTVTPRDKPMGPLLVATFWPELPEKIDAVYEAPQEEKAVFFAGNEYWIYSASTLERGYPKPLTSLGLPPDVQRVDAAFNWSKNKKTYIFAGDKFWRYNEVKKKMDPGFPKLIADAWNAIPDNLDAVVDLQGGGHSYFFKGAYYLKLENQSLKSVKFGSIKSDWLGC
Description: Matrix metalloproteinase 2 (MMP-2) was purchased from Sigma. DOPE-PEG was purchased from Avanti. Trypsin was purchased from Life Technologies. DISMIC was purchased from Advantec. Reverse phase HPLC was performed by using Model 1321H1 (GILSON), UV/VIS-155 (GILSON) as a detector, SOSMOSIL 5C18-AR-II (Nacalai Tesque) as a column, and 0.5% TFA-H2O and 0.5% TFA-acetonitrile filtered through Millicup-LH vacuum-driven bottletop filter unit (Millipore) as a mobile phase. The flow rate was 1.0 mL/minute.
First, it was examined whether or not the peptide was decomposed by MMP-2. A 0.5 mM peptide solution (25 μL) dissolved in a solution containing 10 mM HEPES (pH 7.4), 140 mM NaCl and 2 mM CaCl2 was analyzed by reverse phase HPLC. Further, MMP2 was added to the 0.5 mM peptide solution (25 μL) at a final concentration of 53 nM, 230 nM and 450 nM, each mixture was incubated at 37° C. for 2 hours, and then the whole volume of the mixture was analyzed by HPLC to confirm whether or not the peptide was decomposed by MMP2.

[2] = Particle diameter and aggregation of DOPE liposomes versus addition ratio of PEG-lipid; type: physicochemical; details: for aggregation on incubation: DOPE liposomes with PEG-peptide-DOPE, 37° C.
Description: (§1) A 1 mM lipid solution dissolved in ethanol, of which 125 μL was taken as 100%, was put into test tubes at various molar ratios, and a 1 mM DOPE-PEG solution was also added as required. Chloroform was added in the same volume of ethanol to the mixture in each tube, and the mixture was stirred. Then, the solvent was evaporated in a desiccator to obtain a lipid membrane. After the preparation of the lipid membrane, a solution (250 μL) containing 20 mM HEPES (pH 7.4), 280 mM NaCl, and 4 mM CaCl2 was added, and after hydration for 30 minutes, the mixture was sonicated for 1 minute to prepare liposomes.
(§2) Then, to the prepared liposomes (50 μL), PBS (10 μL), 230 nM or 5.5 nM MMP-2 in terms of final concentration, and 230 nM bovine serum albumin in terms of final concentration were added, the mixture was incubated at 37° C., and after 2, 8 and 24 hours, the particle diameter was measured. […] Even with the addition of 1% of DOPE-PEG, liposomes having a particle size less than 200 nm and showing stable dispersion was successfully prepared.
Also in this experiment, liposomes having a particle size less than 200 nm and showing stable dispersion were similarly prepared with the addition of 1% of PEG-peptide-DOPE.

[3] = system: HEK293 cells; experiment: Gene expression (luciferase activity) after transfection with MENDs, HEK293 cells; type: cell-based, human
Description: (§3) By using D′MEM added with inactivated FBS (FBS final concentration: 10%), the human fibrosarcoma-derived HT1080 cells were cultured on a sterilized culture dish in a CO2 incubator (37° C., 5% CO2). When the cells reached 70% confluence, the cells were removed from the dish by using 0.5 mM EDTA-PBS, the cell suspension was diluted to a density of 1 to 5×10^4 cells/mL using fresh D′MEM, and the cells were subcultured on a sterilized dish. In a similar manner, human kidney […] HEK293 cells were cultured. In the case of the HEK293 cells, the cells were removed from the dish by using 0.05% Trypsin/0.5 mM EDTA-PBS, and subcultured.
(§4) One day before the transfection, the HT1080 cells and the HEK293 cells were each inoculated into 1 mL of a medium on a 24-well plate at a density of 4×10^4 cells/well. A sample, prepared to be corresponding to 0.4 μg of DNA, was diluted to 250 μL with FBS- and antibiotic-free D′MEM (hereinafter abbreviated as “D′MEM(−)”) in the case of a serum free medium, or diluted similarly with D′MEM in the case of serum containing medium. […] The luciferase activity (RLU) in 20 μL of the supernatant was measured, and proteins were measured according to the BCA method for the supernatant diluted 5 times with DDW to calculate RLU/mg protein.

[4] = target: T1, MMP-2; experiment: Evaluation of PEG cleavage by MMP-2 (aggregation / particle diameter of DOPE liposomes); type: biochemical; details: for aggregation of the liposomes: DOPE liposomes containing PEG-peptide-DOPE at 10%
Description: It was evaluated whether or not the PEG-peptide-DOPE obtained in Example 1 was cleavable with MMP. For in vitro evaluation, a system was used with which the cleavage of PEG was detected on the basis of an increase in particle diameter. […] Cylinder-shaped lipids form a lamellar structure (bilayer structure), i.e., a liposome structure, whereas inverse cone-shape lipids form a […] (FIG. 1). It is known that when a PEG-lipid is added at a certain ratio to DOPE, the lipids form a lamellar structure and stably form liposomes. Therefore, if a matrix metalloproteinase is made to act on DOPE-containing liposomes prepared by using PEG-peptide-DOPE, thereby the peptide is decomposed and PEG is cleaved, DOPE molecules from which PEG is cleaved can no longer form liposomes, and take the hexagonal structure to initiate the aggregation. The above hypothesis was adopted as an evaluation method for PEG cleavage. Further, for in vitro evaluation of PEG cleavage, a method of measuring genetic expression activity was adopted. If the interaction of MEND and cell membranes is enhanced by cleavage of PEG, […].
as §1, §2

[5] = Particle diameter and zeta-potential of MENDs (Example 3); type: physicochemical
Description: In order to prepare a negatively charged compaction body, the charge ratio (+/−) was determined to be 1.5 according to the formula (1). To 30 μL of pDNA (0.5 mg/mL), 120 μL of 10 mM HEPES-HCl (pH 7.4) was added. To 5 μL of protamine (2 mg/mL), […] of 10 mM HEPES-HCl (pH 7.4) was added. Protamine was slowly added dropwise to the pDNA solution with stirring by a vortex mixer. Formation of the compaction body was confirmed by measurement of the particle diameter and zeta-potential.
Lipid solutions of 1 mM in ethanol, each of which 125 μL was taken as 100%, were put into test tubes at molar ratios of 30% DOTAP, 40% DOPE, and 30% Chol. As for addition of PEG-lipids, 1 mM PEG-DSPE solution or PEG-peptide-DOPE solution in ethanol was added at a molar ratio of 5% or 15% based on the lipids except for the PEG-lipids, which were taken as 100%. Chloroform was added in the same volume of ethanol to the mixture in each tube, and the mixture was stirred. Then, the solvent was evaporated in a desiccator to obtain a lipid membrane. Then, the compaction body solution (250 μL) was added to the lipid membrane, and the mixture was left standing at room temperature for 15 to 30 minutes for hydration, and then sonicated for 1 to 2 minutes. The particle diameter and the zeta-potential were measured. Any significant difference was not observed between the values measured for MENDs containing PEG-peptide-DOPE and MENDs containing PEG-DSPE, and thus it was considered that equivalent MENDs were successfully prepared.

[6] = Particle diameter and zeta-potential of compaction body and MENDs (Example 4); type: physicochemical; details: Example 4, in HBG; PEG-lipid ratio (5% or 15%) not given
Description: According to the formula (I) mentioned in Example 3, the charge ratio (+/−) was determined to be 1.5, and a compaction body of pDNA coding for luciferase and protamine was prepared in HEPES buffered glucose (10 mM HEPES, pH 7.4, 5% glucose, HBG).
In the same manner as that of Example 3, a lipid membrane consisting of 30% DOTAP, 40% DOPE, and 30% Chol was prepared. To this membrane, PEG-DSPE or PEG-peptide-DOPE was added at a molar ratio of 5% or 15%, and the mixture was evaporated to obtain lipid membranes. Then, the compaction body was added to each of these lipid membranes, and the mixtures were sonicated to prepare MEND, PEG-modified MEND containing PEG-DSPE, and PEG-modified MEND containing PEG-peptide-DOPE.

[7] = system: HT1080 cells; experiment: Gene expression (luciferase activity) after transfection with MENDs, HT1080 cells; type: cell-based, human
Description: as §3, §4

[8] = MEND with PEG-lipid at molar ratio 5%
[9] = MEND with PEG-lipid at molar ratio 15%

Substance	decomposition of the peptide by MMP-2 (HPLC peak of degradation product) [1]	aggregation on incubation ([2]; PEG content up to 5%)	aggregation on incubation ([2]; addition amount of 10%)	particle size ([2]; DOPE liposomes, addition of 1% of PEG-peptide-DOPE)	elevation of phase transition temperature compared with DOPE-PEG ([2]; DOPE liposomes, suggested by the results)	increase of gene expression compared with PEG-DSPE ([3]; MEND modified with 5% of PEG) [times]	gene expression activity compared with the PEG-DSPE modification group ([3]; MEND modified with 15% of PEG)	aggregation of the liposomes ([4]; 5.5 nM MMP-2, 37° C.)	aggregation of the liposomes ([4]; 230 nM BSA, 37° C.)	aggregation of the liposomes ([4]; 230 nM MMP-2, 37° C.)	aggregation of the liposomes ([4]; in PBS, 37° C.)	cleavage by MMP-2 ([4]; lipid in the state of constituting liposomes)	particle diameter [5, 8] [nm]	zeta-potential [5, 8]	particle diameter [5, 9] [nm]	zeta-potential [5, 9]	particle diameter [6] [nm]	ξ -potential [6] [mV]	increase of gene expression compared with PEG-DSPE ([7]; MEND modified with 5% of PEG) [times]	gene expression activity compared with the PEG-DSPE modification group ([7]; MEND modified with 15% of PEG)
GGGVPLSLYSGGGG [peptide]	peak became larger in an enzyme concentration-dependent manner																			
PEG-peptide-DOPE: MeO-PEG succinate bound to Gly-Gly-Gly-Val-Pro-Leu-Ser-Leu-Tyr-Ser-Gly-Gly-Gly-Gly, bound to dioleoylphosphatidylethanolamine; tested as component of liposomes and MENDs ({MeO‑PEG succinate}-GGGVPLSLYSGGGG-{DOPE})		aggregation was observed	aggregation was not observed	less than 200 nm	did not elevate the phase transition temperature as much as DOPE-PEG	5	did not give the increase of the gene expression activity	Aggregation of the liposomes was not observed	Aggregation was not observed	aggregation was observed	Aggregation of the liposomes was not observed	cleaved by MMP-2	162.2	+18.79 mV	141.2	+2.80 mV	141	12.8	35	did not give the increase of the gene expression activity
